The text below walks through data of patent publication US20170088610A1 (RINAT NEUROSCIENCE, published 2017).

The target of assay [1] is T1, human nerve growth factor (human, UniProt P01138 122-241).
T1 construct: Immobilised on CM5 chips for BIAcore, soluble in neuron survival assays; also called human NGF; hNGF
As to the kind of experiment: BIAcore SPR, Fab over immobilised human NGF.

Assay [2] addresses T1, human nerve growth factor. In words: BIAcore SPR screen, Fab over immobilised human NGF. As for the experimental part:
(§1) A screening BIAcore assay was optimized to determine the affinity of Fab clones from libraries. Supernatants of small culture lysates were injected at […] for 2 min. Dissociation times of 10 to 15 minutes were used for determination of a single exponential dissociation rate (koff) using BIAevaluation software. […] Clones showing improved (slower) koff values were expressed at large scale and full kinetic parameters, kₒₙ and koff, were determined on purified protein.
Background: Surface plasmon resonance follows binding to a sensor surface in real time, without labels.

The target in assay [3] is T1, human nerve growth factor. As to the kind of experiment: BIAcore SPR screen, Fab over immobilised human NGF; KD calculated from koff with kon 4e4 M-1s-1. As for the experimental part:
as §1

Assay [4] deals with T1, human nerve growth factor. In words: BIAcore SPR screen, Fab over immobilised human NGF; KD calculated from koff with kon 4e4 M-1s-1; 8L2-6D5 template, not H19-L129 template. As for the experimental part: (§2) Affinities of anti-NGF Fabs and monoclonal antibodies were determined using the BIAcore3000™ surface plasmon resonance (SPR) system (BIAcore, INC, Piscaway N.J.). CM5 chips were activated with N-ethyl-N′-(3-dimethylaminopropyl)-carbodiinide hydrochloride (EDC) and N-hydroxysuccinimide (NETS) according to the supplier's instructions. Human NGF was diluted into 10 mM sodium acetate pH 4.0 and injected over the activated chip at a concentration of 0.005 mg/mL. Using variable flow time across the individual chip channels, two ranges of antigen density were achieved: 100-200 response units (RU) for detailed kinetic studies and 500-600 RU for screening assays. The chip was blocked with ethanolamine. […] HBS-EP buffer (0.01M HEPES, pH 7.4, 0.15 NaCl, 3 mM EDTA, 0.005% Surfactant […]) was used as running buffer for all the BIAcore assays.
as §1

Assay [5] concerns the target T1, human nerve growth factor. As to the kind of experiment: BIAcore SPR screen, Fab over immobilised human NGF; KD calculated from koff with kon 4e4 M-1s-1. As for the experimental part: as §1
(§3) For affinity screening experiments, each library was further paired with the corresponding CDR-grafted light or heavy chain (for example, the H1/H2 library was paired with CDR-grafted light chain), the antibody was expressed, and affinity to human NGF of the individual clones was screened using the BIACORE surface plasmon resonance (SPR) system (BIAcore, Inc. Piscataway, N.J.) according to the manufacturer's instructions and as described above. koff, kₒₙ and KD were determined. Antibody clones were ranked based on koff rates, since generally most variation in affinity is seen in koff rates, and further because koff rates are independent of antibody concentration.
The source holds these as a separate data set.

The target in assay [6] is T1, human nerve growth factor. As to the kind of experiment: BIAcore SPR screen, Fab over immobilised human NGF. As for the experimental part: as §1, §3
The source holds these as a separate data set.

The target of assay [7] is T2, rat nerve growth factor (rat, UniProt P25427 122-241). In words: cell-based or functional assay.
T2 sequence (P25427 122-241 limits assumed): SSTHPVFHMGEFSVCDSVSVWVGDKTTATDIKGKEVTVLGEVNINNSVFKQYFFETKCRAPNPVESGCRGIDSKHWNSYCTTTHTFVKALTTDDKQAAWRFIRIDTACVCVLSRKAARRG
The target of assay [8] is T1, human nerve growth factor. As to the kind of experiment: cell-based or functional assay.
The target in assay [9] is T1, human nerve growth factor. In words: BIAcore SPR screen, Fab over immobilised human NGF; KD calculated from koff with kon 4e4 M-1s-1. As for the experimental part: as §1
(§4) 20-80 clones from each small library were screened using BIAcore analysis as described herein. Samples were simultaneously analyzed by BIAcore for binding affinity to NGF in one channel of the BIAcore chip and for presence of Fab by binding to a penta-histag antibody in another channel of the sensor chip, to detect the his tag at the C terminus of the heavy chain. Clones that expressed protein were classified as having the same affinity, worse affinity, better affinity or no binding, using koff to classify: The results of this analysis are shown in Table 5.
The source holds these as a separate data set.

The target in assay [10] is T1, human nerve growth factor. In words: BIAcore SPR screen, Fab over immobilised human NGF. As for the experimental part:
as §1, §4
This is another data set of the same source.

Assay [11] concerns the target T1, human nerve growth factor. As to the kind of experiment: BIAcore SPR, purified Fab over immobilised human NGF (100 RU); purified Fab 3C, 100 RU NGF on chip. As for the experimental part:
as §2
(§5) Briefly, several concentrations of antibodies (Fabs) were injected for 2 minutes onto a CM5 chip with 100 RU of immobilized human NGF on it, and permitted to dissociate for 1800 seconds. […] Data was analyzed using BIAevaluation software following the manufacturer's instructions.

The target of assay [12] is T1, human nerve growth factor. As to the kind of experiment: BIAcore SPR screen, Fab over immobilised human NGF; KD calculated from koff with kon 4e4 M-1s-1; screening KD calculated from koff with the fixed kon 4e4; paragraph 422 gives about 1 nM.
In assay [13] the target is T1, human nerve growth factor. In words: BIAcore SPR screen, Fab over immobilised human NGF. The source holds these as a separate data set.
Assay [14] concerns the target T1, human nerve growth factor. As to the kind of experiment: BIAcore SPR, purified Fab over immobilised human NGF (100 RU); purified Fab E3, 100 RU NGF on chip. As for the experimental part:
as §2, §5

In assay [15] the target is T1, human nerve growth factor. In words: BIAcore SPR, Fabs over immobilised human NGF. As for the experimental part:
as §2, §5

In assay [16] the target is T1, human nerve growth factor. In words: BIAcore SPR, Fab over immobilised human NGF (100 RU). As for the experimental part:
as §2, §5

Assay [17] addresses T2, rat nerve growth factor. As to the kind of experiment: cell-based or functional assay. This is another data set of the same source.
The target in assay [18] is T1, human nerve growth factor. In words: cell-based or functional assay. This is another data set of the same source.

Where a chain is given by its changes, count along the chain named. Names may count otherwise. Read-outs that look alike come from different tables or passages of the source.

T1 sequence (P01138 122-241 limits assumed): as the sequence (P25427 122-241 limits assumed) above, with T3S, V6I, M9R, T37M, A60D, E65D, T92M, D94G, A117V, G120A counted along it

B1: 8L2-4D5 (CDR-grafted antibody, template) (Fab, V domains shown)
VH: QVQLQESGPGLVKPSETLSLTCTVSGFSLIGYDINWIRQPPGKGLEWIGMIWGDGTTDYNSALKSRVTISVDTSKNQFSLKLSSVTAADTAVYYCARGGYYYGTSYYFDYWGQGTLVTVS
VL: DIQMTQSPSSLSASVGDRVTITCRASQDISNHLNWYQQKPGKAPKLLIYYISRFHSGVPSRFSGSGSGTDFTFTISSLQPEDIATYYCQQSKTLPYTFGQGTKLEIKR
B1: the Kd (in general, a measure of binding affinity in units of concentration) in assay [1] is ~38 nM.

B2: 8L2-6D5 template Fab with L_S91E; L_K92A and H_Y101W; H_G103A (Fab, V domains shown)
VH: B1 VH with V71K, Y101W, G103A
VL: B1 VL with S91E, K92A
notes: See note of m8
In the case of B2, the koff (in general, the first-order rate constant of dissociation) in [2] was 0.00055 s⁻¹. The Kd in assay [3] was 13 nM.

B3: 8L2-6D5 template Fab with L_S91E; L_K92R and H_Y101W; H_G103A (Fab, V domains shown)
VH: B1 VH with V71K, Y101W, G103A
VL: B1 VL with S91E, K92R
notes: See note of m8
Consider B3, for which the dissociation constant (Kd) in assay [4] is 2.5 nM. The same molecule showed a koff in [2] of 0.0001 s⁻¹.

B4: H19-L129 template Fab with L_S91E; L_K92S and H_Y101W; H_G103S (Fab, V domains shown)
VH: B1 VH with I34L, M50I, L63V, V71K, Y101W, G103S
VL: B1 VL with D28S, H32N, I51T, S91E, K92S
notes: See note of m8
B4 had a koff in [2] of 4.7e-05 s⁻¹. The Kd in assay [3] was 1.1 nM.

B5: H19-L129 template Fab with L_S91E; L_K92K and H_Y101Y; H_G103A (Fab, V domains shown)
VH: B1 VH with I34L, M50I, L63V, V71K, G103A
VL: B1 VL with D28S, H32N, I51T, S91E
notes: See note of m8
B5 came in with a koff in [2] of 2e-05 s⁻¹. The Kd in assay [3] was 0.5 nM.

B6: light chain library clone L208 (Fab, V domains shown)
VH: B1 VH with V71K
VL: B1 VL with D28Y, I51T
notes: See note of m8
For B6, the Kd in assay [5] is 11 nM. The koff in [6] stood at 0.00046 s⁻¹.

B7: 8L2-6D5 (CDR-grafted antibody with framework mutation V71K) (Fab, V domains shown)
VH: B1 VH with V71K
VL: B1 VL
notes: Fab (human IgG2 CH1 + C-kappa, His tag at heavy chain C terminus); also called 8L2-6D5 Fab; 8L2-6D5 (control)
With B7, the dissociation constant (Kd) in [5] was 25 nM; in assay [1] it was ~15 nM; in [9], 25 nM; in [3] it was 25 nM. Further, the “IC50, rat NGF-dependent survival of mouse E13.5 trigeminal neurons (1.5 pM NGF)” value (shortened to “IC50, rat NGF-dependent survival … (1.5 pM NGF)”) in assay [7] was found to be 169 pM. In addition, in [7], the “IC50, rat NGF-dependent survival of mouse E13.5 trigeminal neurons (15 pM NGF)” value (“IC50, rat NGF-dependent survival … (15 pM NGF)” below) was 730 pM. Besides, the “IC50, human NGF-dependent survival of mouse E13.5 trigeminal neurons (1.5 pM NGF)” value in assay [8] was found to be 462 pM. In addition, the “IC50, human NGF-dependent survival of mouse E13.5 trigeminal neurons (15 pM NGF)” value (“IC50, human NGF-dependent survival … (15 pM NGF)” below) in assay [8] came out at 1580 pM. Also, the koff in [2], in assay [10] and in assay [6] was 0.001 s⁻¹ each time.

B8: H19-L129 template Fab with L_S91E; L_K92R and H_Y101Y; H_G103A (Fab, V domains shown)
VH: B1 VH with I34L, M50I, L63V, V71K, G103A
VL: B1 VL with D28S, H32N, I51T, S91E, K92R
notes: See note of m8
Molecule B8 registered a koff in assay [2] of 1.5e-05 s⁻¹. In [3], the Kd was 0.37 nM.

B9: clone 3C (Fab) (Fab, V domains shown)
VH: B1 VH with I34L, M50I, L63V, V71K, Y101W, G103A
VL: B1 VL with D28S, H32N, I51T, S91E, K92R
notes: same L1, L2, H1, H2 mutations as 3E; See note of m8; also called Fab 3C
Take B9: in [7], the “IC50, rat NGF-dependent survival … (1.5 pM NGF)” value came out at 6 pM and the “IC50, rat NGF-dependent survival … (15 pM NGF)” value is 31.6 pM. Besides, in [8], the “IC50, human NGF-dependent survival of mouse E13.5 trigeminal neurons (1.5 pM NGF)” value is 5.6 pM and the “IC50, human NGF-dependent survival … (15 pM NGF)” value was 80.9 pM. The koff in [2] stood at 1.4e-05 s⁻¹. Also, in [11], the Kd is ~0.35 nM and the koff is ~1.4e-05 s⁻¹. Besides, in [3], the Kd was 0.35 nM.

B10: H19-L129 (combined clone, H1 H2 L1 L2 matured) (Fab, V domains shown)
VH: B1 VH with I34L, M50I, L63V, V71K
VL: B1 VL with D28S, H32N, I51T
notes: See note of m8; also called H19-L129 Fab; Fab H19-L129
Regarding B10, in [1], the Kd is ~1 nM. Besides, in assay [7], the “IC50, rat NGF-dependent survival … (1.5 pM NGF)” value was 6 pM and the “IC50, rat NGF-dependent survival … (15 pM NGF)” value is 31 pM. Moreover, in assay [8], the “IC50, human NGF-dependent survival of mouse E13.5 trigeminal neurons (1.5 pM NGF)” value stood at 9.6 pM and the “IC50, human NGF-dependent survival … (15 pM NGF)” value worked out at 60.1 pM. Also, the koff in [2] was determined as 0.00011 s⁻¹. For the same molecule, the Kd in assay [12] was ~2.75 nM. The molecule further yielded a dissociation rate constant (koff) in assay [13] of 0.00011 s⁻¹.

B11: antibody E3 (Fab) (Fab, V domains shown)
VH: B1 VH with I34L, M50I, L63V, V71K, Y101W, G103A
VL: B1 VL with D28S, H32N, I51T, S91E, K92H
notes: Fab with human IgG2 CH1 and human kappa constant domain; His tag at the heavy chain C terminus in the E. coli format; also called Fab E3; 3E Fab
With B11, in assay [7], the “IC50, rat NGF-dependent survival … (1.5 pM NGF)” value is < 1.3 pM and the “IC50, rat NGF-dependent survival … (15 pM NGF)” value was < 8.3 pM. In [8], the “IC50, human NGF-dependent survival of mouse E13.5 trigeminal neurons (1.5 pM NGF)” value was < 1.2 pM and the “IC50, human NGF-dependent survival … (15 pM NGF)” value is < 21 pM. Besides, the koff in assay [2] amounted to 1.2e-05 s⁻¹. In addition, in assay [14], the koff was ~4.2e-05 s⁻¹. Further, in [15], the “fold higher binding affinity than parent mouse antibody 911” value is ~50 fold. In assay [16], the Kd is ≤ 0.07 nM; the koff was < 4e-05 s⁻¹; the kon – broadly, a measure of how fast the partners come together – is 600000 M⁻¹ s⁻¹. Also, in [3], the Kd was 0.3 nM. Moreover, the “IC50, rat NGF-dependent survival … (15 pM NGF)” value in assay [17] is ~31.6 pM. In addition, the “IC50 (read off the curve), NGF-dependent survival of E13.5 mouse trigeminal neurons (0.4 ng/ml human NGF, 48 h)” value in assay [18] was ~0.02 nM binding sites.
